Key:
[1] = biological target: FLAG-Luc [luciferase: P08659]
MSN-V5-His, P26038 = biological target: T1, MSN-V5-His, P26038
T1 chain: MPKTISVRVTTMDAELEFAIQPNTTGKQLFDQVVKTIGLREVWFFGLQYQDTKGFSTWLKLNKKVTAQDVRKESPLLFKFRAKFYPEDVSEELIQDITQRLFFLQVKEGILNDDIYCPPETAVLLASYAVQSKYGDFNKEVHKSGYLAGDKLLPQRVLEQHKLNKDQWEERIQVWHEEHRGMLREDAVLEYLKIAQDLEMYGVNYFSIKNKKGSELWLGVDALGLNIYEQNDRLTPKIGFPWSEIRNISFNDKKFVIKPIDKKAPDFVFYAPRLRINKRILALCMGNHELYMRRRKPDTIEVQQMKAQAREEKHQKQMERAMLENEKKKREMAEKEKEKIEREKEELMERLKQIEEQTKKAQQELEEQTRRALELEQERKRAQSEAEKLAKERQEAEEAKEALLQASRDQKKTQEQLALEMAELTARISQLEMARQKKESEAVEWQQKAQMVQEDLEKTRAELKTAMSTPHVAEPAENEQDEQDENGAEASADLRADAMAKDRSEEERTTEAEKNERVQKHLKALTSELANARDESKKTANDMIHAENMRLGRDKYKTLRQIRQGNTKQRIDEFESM

FLAG-Luc [luciferase: P08659], sequence (P08659 whole entry): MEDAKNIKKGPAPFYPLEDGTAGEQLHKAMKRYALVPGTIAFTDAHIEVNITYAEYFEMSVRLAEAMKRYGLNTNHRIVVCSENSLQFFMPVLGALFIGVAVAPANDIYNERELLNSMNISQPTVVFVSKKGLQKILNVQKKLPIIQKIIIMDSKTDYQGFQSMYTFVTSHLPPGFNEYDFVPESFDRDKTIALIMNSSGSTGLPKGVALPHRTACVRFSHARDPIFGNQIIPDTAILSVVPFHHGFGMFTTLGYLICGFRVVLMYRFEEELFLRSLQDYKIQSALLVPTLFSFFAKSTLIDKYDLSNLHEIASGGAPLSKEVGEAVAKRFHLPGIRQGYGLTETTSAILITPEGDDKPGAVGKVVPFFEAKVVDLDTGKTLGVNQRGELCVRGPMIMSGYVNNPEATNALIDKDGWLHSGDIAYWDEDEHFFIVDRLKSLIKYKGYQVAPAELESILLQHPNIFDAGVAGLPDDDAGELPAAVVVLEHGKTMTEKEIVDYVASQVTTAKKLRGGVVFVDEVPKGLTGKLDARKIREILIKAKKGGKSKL

B1: purified PKC theta (Upstate) (protein)
chain: MSPFLRIGLSNFDCGSCQSCQGEAVNPYCAVLVKEYVESENGQMYIQKKPTMYPPWDSTFDAHINKGRVMQIIVKGKNVDLISETTVELYSLAERCRKNNGKTEIWLELKPQGRMLMNARYFLEMSDTKDMNEFETEGFFALHQRRGAIKQAKVHHVKCHEFTATFFPQPTFCSVCHEFVWGLNKQGYQCRQCNAAIHKKCIDKVIAKCTGSAINSRETMFHKERFKIDMPHRFKVYNYKSPTFCEHCGTLLWGLARQGLKCDACGMNVHHRCQTKVANLCGINQKLMAEALAMIESTQQARCLRDTEQIFREGPVEIGLPCSIKNEARPPCLPTPGKREPQGISWESPLDEVDKMCHLPEPELNKERPSLQIKLKIEDFILHKMLGKGSFGKVFLAEFKKTNQFFAIKALKKDVVLMDDDVECTMVEKRVLSLAWEHPFLTHMFCTFQTKENLFFVMEYLNGGDLMYHIQSCHKFDLSRATFYAAEIILGLQFLHSKGIVYRDLKLDNILLDKDGHIKIADFGMCKENMLGDAKTNTFCGTPDYIAPEILLGQKYNHSVDWWSFGVLLYEMLIGQSPFHGQDEEELFHSIRMDNPFYPRWLEKEAKDLLVKLFVREPEKRLGVRGDIRQHPLFREINWEELERKEIDPPFRPKVKSPFDCSNFDKEFLNEKPRLSFADRALINSMDQNMFRNFSFMNPGMERLIS
FLAG-KPNA1, P52294
FLAG-KPNA1, P52294, sequence (P52294 whole entry): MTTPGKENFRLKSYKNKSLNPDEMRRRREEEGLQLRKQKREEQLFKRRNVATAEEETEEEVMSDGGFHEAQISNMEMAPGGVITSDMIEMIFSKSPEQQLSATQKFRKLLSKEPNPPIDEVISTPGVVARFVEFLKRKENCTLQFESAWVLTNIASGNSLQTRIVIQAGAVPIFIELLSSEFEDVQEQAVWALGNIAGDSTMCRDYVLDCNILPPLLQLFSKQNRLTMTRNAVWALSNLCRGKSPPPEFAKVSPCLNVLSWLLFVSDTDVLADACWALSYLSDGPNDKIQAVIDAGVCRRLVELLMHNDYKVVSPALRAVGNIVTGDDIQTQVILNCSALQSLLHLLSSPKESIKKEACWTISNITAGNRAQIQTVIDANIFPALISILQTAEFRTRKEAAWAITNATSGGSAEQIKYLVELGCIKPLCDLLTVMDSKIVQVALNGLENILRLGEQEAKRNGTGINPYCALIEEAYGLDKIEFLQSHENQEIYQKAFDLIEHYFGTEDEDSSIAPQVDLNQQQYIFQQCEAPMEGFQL
  phosphorylation of substrate, in vitro kinase assay with gamma-32P-ATP, SDS-PAGE and autoradiography: phosphorylated band of KPNA1 (molecular weight of about 63 kDa) was observed
[1]
  phosphorylation of substrate, in vitro kinase assay with gamma-32P-ATP, SDS-PAGE and autoradiography: the negative control Luc does not contain phosphorylated band (molecular weight of about 62 kDa)
MSN-V5-His, P26038
  phosphorylation of substrate, in vitro kinase assay with gamma-32P-ATP, SDS-PAGE and autoradiography: the positive control MSN contains phosphorylated band (molecular weight of about 71 kDa)

Source: patent publication US20070134663
